One data set concerns the target T1, ZHX1 (UniProt Q9UKY1 55-830).
T1 sequence: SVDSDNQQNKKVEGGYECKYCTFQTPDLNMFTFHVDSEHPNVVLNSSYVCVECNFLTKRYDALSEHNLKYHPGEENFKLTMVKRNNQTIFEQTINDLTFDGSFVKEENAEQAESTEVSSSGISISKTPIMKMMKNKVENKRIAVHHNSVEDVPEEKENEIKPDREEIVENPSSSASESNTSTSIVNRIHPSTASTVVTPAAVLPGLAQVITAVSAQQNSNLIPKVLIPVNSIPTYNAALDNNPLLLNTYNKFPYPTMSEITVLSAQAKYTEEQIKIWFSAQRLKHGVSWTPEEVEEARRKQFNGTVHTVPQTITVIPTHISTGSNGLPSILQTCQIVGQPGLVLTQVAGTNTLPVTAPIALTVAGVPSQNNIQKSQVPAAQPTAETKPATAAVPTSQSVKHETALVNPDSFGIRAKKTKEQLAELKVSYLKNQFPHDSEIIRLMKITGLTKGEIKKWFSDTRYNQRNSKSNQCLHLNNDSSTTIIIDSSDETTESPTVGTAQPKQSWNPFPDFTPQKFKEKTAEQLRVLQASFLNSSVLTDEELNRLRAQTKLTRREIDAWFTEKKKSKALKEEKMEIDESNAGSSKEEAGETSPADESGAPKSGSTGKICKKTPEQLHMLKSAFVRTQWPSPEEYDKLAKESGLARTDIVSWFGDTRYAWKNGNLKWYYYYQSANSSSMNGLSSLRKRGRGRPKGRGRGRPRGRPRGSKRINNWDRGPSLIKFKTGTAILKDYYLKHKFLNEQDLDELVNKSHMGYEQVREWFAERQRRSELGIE
Briefly: EMSA.

Data set [1] addresses T2, WDR76 (FLAG-HA, insect cell) (Homo sapiens, UniProt Q9H967 1-626).
T2 sequence: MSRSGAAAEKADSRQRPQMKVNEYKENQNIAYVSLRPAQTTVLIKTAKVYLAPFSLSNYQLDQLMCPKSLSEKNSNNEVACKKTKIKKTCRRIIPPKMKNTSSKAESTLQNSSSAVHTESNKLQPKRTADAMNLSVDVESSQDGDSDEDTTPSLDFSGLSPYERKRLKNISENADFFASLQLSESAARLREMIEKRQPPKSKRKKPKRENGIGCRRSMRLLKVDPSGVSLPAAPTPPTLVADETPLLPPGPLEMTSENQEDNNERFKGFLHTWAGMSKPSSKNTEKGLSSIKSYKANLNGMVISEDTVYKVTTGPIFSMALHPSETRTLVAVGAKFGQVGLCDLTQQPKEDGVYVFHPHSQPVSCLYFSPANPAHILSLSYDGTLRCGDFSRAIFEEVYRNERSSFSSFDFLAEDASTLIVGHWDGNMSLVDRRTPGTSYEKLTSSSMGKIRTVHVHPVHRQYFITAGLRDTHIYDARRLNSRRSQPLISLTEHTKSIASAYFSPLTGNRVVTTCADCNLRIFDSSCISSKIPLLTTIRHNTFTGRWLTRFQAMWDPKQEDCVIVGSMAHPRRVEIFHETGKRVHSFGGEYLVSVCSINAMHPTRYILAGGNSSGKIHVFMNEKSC
Briefly: EMSA.

Data set [2] addresses T3, WDR76 (FLAG-HA, HEK293 purified) (Homo sapiens, UniProt Q9H967 1-626).
T3 sequence: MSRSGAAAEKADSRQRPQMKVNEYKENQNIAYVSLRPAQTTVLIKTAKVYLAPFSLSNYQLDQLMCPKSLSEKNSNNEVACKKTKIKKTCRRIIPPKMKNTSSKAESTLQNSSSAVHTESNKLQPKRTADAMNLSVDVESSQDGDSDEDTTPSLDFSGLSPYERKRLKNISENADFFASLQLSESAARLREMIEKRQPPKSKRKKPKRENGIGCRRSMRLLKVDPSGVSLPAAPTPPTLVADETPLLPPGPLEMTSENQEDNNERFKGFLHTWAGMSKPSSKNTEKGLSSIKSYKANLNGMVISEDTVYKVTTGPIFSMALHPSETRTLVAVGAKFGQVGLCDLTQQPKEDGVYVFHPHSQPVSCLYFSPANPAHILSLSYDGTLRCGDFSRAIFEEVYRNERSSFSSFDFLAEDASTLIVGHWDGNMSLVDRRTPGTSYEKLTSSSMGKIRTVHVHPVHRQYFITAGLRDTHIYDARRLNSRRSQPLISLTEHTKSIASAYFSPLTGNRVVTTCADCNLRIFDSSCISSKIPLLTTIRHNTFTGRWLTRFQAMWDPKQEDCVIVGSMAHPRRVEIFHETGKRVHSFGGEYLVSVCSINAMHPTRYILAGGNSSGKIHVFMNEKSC
As to the kind of experiment: EMSA.

A further data set deals with T4, WDR76 NTD (Homo sapiens, UniProt Q9H967 1-151).
T4 sequence: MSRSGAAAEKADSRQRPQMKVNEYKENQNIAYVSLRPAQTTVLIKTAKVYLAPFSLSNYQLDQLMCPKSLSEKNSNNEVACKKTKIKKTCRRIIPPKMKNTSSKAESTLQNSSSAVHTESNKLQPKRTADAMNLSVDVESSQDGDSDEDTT
Briefly: filter binding.

Data set [3] addresses T5, C3ORF37/HMCES full-length (UniProt Q96FZ2 1-354).
T5 sequence: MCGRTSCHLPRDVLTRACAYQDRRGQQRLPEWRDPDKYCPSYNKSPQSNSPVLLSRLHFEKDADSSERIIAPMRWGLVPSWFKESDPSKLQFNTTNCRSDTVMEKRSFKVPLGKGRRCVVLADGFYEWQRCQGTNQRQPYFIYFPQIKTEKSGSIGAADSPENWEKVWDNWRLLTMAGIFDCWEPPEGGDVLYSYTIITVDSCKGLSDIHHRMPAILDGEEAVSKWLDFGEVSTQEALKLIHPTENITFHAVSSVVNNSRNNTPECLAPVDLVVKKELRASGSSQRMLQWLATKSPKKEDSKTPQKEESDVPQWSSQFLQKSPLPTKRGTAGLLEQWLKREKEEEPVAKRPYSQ
As to the kind of experiment: filter binding.

Data set [4] deals with T2, WDR76 (FLAG-HA, insect cell). Briefly: EMSA. This is another data set of the same source.

Where two headings read alike, the source gives them in different places.

B1: fC/fC duplex (dsDNA)
DNA 1: GCGGCTGCGTGGGTCC
DNA 2: GGACCCACGCAGCCGC
modifications: 5-formylcytosine at central CpG C8 of both strands
B1: the binding result (with ZHX1; in data set [1]; in data set [2]) was “no binding” throughout.

B2: hmC/C duplex (dsDNA)
DNA 1: GCGGCTGCGTGGGTCC
DNA 2: GGACCCACGCAGCCGC
modifications: 5-hydroxymethylcytosine at central CpG of one strand (strand not stated), C on the other
On to B2, for which the binding result with WDR76 NTD is “binds”.

B3: C/C duplex (dsDNA)
DNA 1: GCGGCTGCGTGGGTCC
DNA 2: GGACCCACGCAGCCGC
In the case of B3, the binding result (in data set [3]; with ZHX1) was “no binding” each time.

B4: mC/mC duplex (dsDNA)
DNA 1: GCGGCTGCGTGGGTCC
DNA 2: GGACCCACGCAGCCGC
modifications: 5-methylcytosine at central CpG C8 of both strands
As to B4, in the data set with ZHX1, the binding result is reported as “no binding”.

B5: hmC/hmC duplex (dsDNA)
DNA 1: GCGGCTGCGTGGGTCC
DNA 2: GGACCCACGCAGCCGC
modifications: 5-hydroxymethylcytosine at central CpG C8 of both strands
Consider B5, for which the binding result with ZHX1 is “no binding”; in data set [4], “binds”; in data set [2] it was “binds”.

The values are drawn from article doi:10.1101/511394.
